This note sets out measurements from PMC10586629, “Single B cell transcriptomics identifies multiple isotypes of broadly neutralizing antibodies against flaviviruses” (PLOS Pathogens, 2023).

This test addresses T1, wild-type DENV2 16681 prM/E expressed in HEK-293T cells (Dengue virus 2, strain 16681, UniProt P29990).
T1 construct: also called WT DENV2 E protein; wild-type prM/E
Nature of the test: flow cytometry on cells. As to conditions: one partner purified. In general terms: A flow cytometer gives signals particle by particle.

B1: F25.S02 IgG1 (antibody, V domains shown)
VH: QVQLVQSGAEVKKPGSSAKVSCKASGGTFSSYAISWVRQAPGQGLEWMGSIMPIFGTVNYAQKFQGRVTITADESTSTAYMELSRLRSEDTAVYFCARGWGGNYRSADLWIYFDLWGQGTLVTVSS
VL: QSALTQPRSVSGSPGQSVTISCTGTSSDVGGYKYVSWYQQHPGKAPKLMIYDVTKRPSGVPDRFSGSKSGNTASLTISGLQADDEADYYCCSYAGSYTHVVFGGGTKLTVL
As for B1, the binding result is listed as “binds”.
